# Results published in patent publication US20140161790A1 (Xencor, published 2014).
# Tests used:
# [1] = biological target: T1, human FcRn (heterodimer of alpha chain and beta2-microglobulin) (human, UniProt P55899 24-297; P61769 21-119, limits assumed); experiment: SPR, FcRn coupled directly to CM5 chip, antibody analyte at 200 nM bound at pH 6.0, dissociation at pH 7.4; avid format, relative values only
# T1 construct: Co-expressed in HEK293T cells; also called hFcRn; human neonatal Fc receptor
# T1 sequence (P55899 24-297 limits assumed, chain 1 of 2): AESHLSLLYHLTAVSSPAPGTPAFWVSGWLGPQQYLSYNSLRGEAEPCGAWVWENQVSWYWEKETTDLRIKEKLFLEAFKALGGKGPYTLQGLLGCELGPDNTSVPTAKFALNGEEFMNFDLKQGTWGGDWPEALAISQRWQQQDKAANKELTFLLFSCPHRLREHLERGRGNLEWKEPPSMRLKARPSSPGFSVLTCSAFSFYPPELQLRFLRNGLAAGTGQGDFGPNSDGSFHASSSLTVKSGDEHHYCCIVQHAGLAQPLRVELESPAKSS
# T1 sequence (P61769 21-119 limits assumed, chain 2 of 2): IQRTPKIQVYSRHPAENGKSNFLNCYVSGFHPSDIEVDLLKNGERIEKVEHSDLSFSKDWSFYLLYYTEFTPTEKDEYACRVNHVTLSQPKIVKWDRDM
# [2] = biological target: T1, human FcRn (heterodimer of alpha chain …); experiment: SPR as above, pH 6.0; fold KD against native IgG1
# [3] = biological target: T1, human FcRn (heterodimer of alpha chain …); experiment: SPR (Biacore 3000), antibody captured on immobilized VEGF, human FcRn as analyte, pH 6.0, 1:1 Langmuir fit
Binder,koff [1],Fold KD [2],Kd [3],koff [3],kon [3]
"bevacizumab IgG1 Fc variant N434S (antibody, copies: 2 + 2) heavy: not shown light: not shown",0.29 s⁻¹,,,,
"bevacizumab IgG1 Fc variant V259I/V308F/M428L (antibody, also called IFL; copies: 2 + 2) heavy: EVQLVESGGGLVQPGGSLRLSCAASGYTFTNYGMNWVRQAPGKGLEWVGWINTYTGEPTYAADFKRRFTFSLDTSKSTAYLQMNSLRAEDTAVYYCAKYPHYYGSSHWYFDVWGQGTLVTVSSASTKGPSVFPLAPSSKSTSGGTAALGCLVKDYFPEPVTVSWNSGALTSGVHTFPAVLQSSGLYSLSSVVTVPSSSLGTQTYICNVNHKPSNTKVDKKVEPKSCDKTHTCPPCPAPELLGGPSVFLFPPKPKDTLMISRTPEITCVVVDVSHEDPEVKFNWYVDGVEVHNAKTKPREEQYNSTYRVVSVLTFLHQDWLNGKEYKCKVSNKALPAPIEKTISKAKGQPREPQVYTLPPSREEMTKNQVSLTCLVKGFYPSDIAVEWESNGQPENNYKTTPPVLDSDGSFFLYSKLTVDKSRWQQGNVFSCSVLHEALHNHYTQKSLSLSPGK light: not shown",0.13 s⁻¹,19.8 fold,0.124 µM,0.0238 s⁻¹,192000 M⁻¹ s⁻¹
"bevacizumab IgG1 Fc variant M252Y/S254T/T256E (antibody, also called YTE; copies: 2 + 2) heavy: EVQLVESGGGLVQPGGSLRLSCAASGYTFTNYGMNWVRQAPGKGLEWVGWINTYTGEPTYAADFKRRFTFSLDTSKSTAYLQMNSLRAEDTAVYYCAKYPHYYGSSHWYFDVWGQGTLVTVSSASTKGPSVFPLAPSSKSTSGGTAALGCLVKDYFPEPVTVSWNSGALTSGVHTFPAVLQSSGLYSLSSVVTVPSSSLGTQTYICNVNHKPSNTKVDKKVEPKSCDKTHTCPPCPAPELLGGPSVFLFPPKPKDTLYITREPEVTCVVVDVSHEDPEVKFNWYVDGVEVHNAKTKPREEQYNSTYRVVSVLTVLHQDWLNGKEYKCKVSNKALPAPIEKTISKAKGQPREPQVYTLPPSREEMTKNQVSLTCLVKGFYPSDIAVEWESNGQPENNYKTTPPVLDSDGSFFLYSKLTVDKSRWQQGNVFSCSVMHEALHNHYTQKSLSLSPGK light: not shown",0.32 s⁻¹,7.24 fold,0.34 µM,0.0549 s⁻¹,162000 M⁻¹ s⁻¹
"bevacizumab IgG1 Fc variant M428L/N434S (antibody, also called LS; LS bevacizumab variant; copies: 2 + 2) heavy: not shown light: not shown",0.33 s⁻¹,,,,
"bevacizumab IgG1 Fc variant V259I/V308F (antibody, also called IF; copies: 2 + 2) heavy: not shown light: not shown",0.6 s⁻¹,5.8 fold,0.424 µM,0.0752 s⁻¹,178000 M⁻¹ s⁻¹
